Biological target: GFP-GABAB1b
Assay: FRET or BRET; two-photon FLIM; GFP donor, t-dimer DsRed acceptor; transfected rat spinal neurons in culture, fixed; treated with baclofen (10^-9 to 10^-3 M) or GABA (10^-4 M), with exogenous fibulin-2 protein (25 or 50 nM), co-transfected fibulin-2 or anti-fibulin-2 siRNA; mean FRET efficiency ± …

FRET efficiency (baclofen 10^-6 M): 51.2%
FRET efficiency (baclofen 10^-6 M, fibulin-2 co-transfected): 53%
B1: DsRed-GABAB2 (receptor)
chain: WTRGAPRPPPSSPPLSIMGLMPLTKEVAKGSIGRGVLPAVELAIEQIRNESLLRPYFLDLRLYDTECDNAKGLKAFYDAIKYGPNHLMVFGGVCPSVTSIIAESLQGWNLVQLSFAATTPVLADKKKYPYFFRTVPSDNAVNPAILKLLKHFRWRRVGTLTQDVQRFSEVRNDLTGVLYGEDIEISDTESFSNDPCTSVKKLKGNDVRIILGQFDQNMAAKVFCCAFEESMFGSKYQWIIPGWYEPAWWEQVHVEANSSRCLRRSLLAAMEGYIGVDFEPLSSKQIKTISGKTPQQFEREYNSKRSGVGPSKFHGYAYDGIWVIAKTLQRAMETLHASSRHQRIQDFNYTDHTLGKIILNAMNETNFFGVTGQVVFRNGERMGTIKFTQFQDSREVKVGEYNAVADTLEIINDTIRFQGSEPPKDKTIILEQLRKISLPLYSILSALTILGMIMASAFLFFNIKNRNQKLIKMSSPYMNNLIILGGMLSYASIFLFGLDGSFVSEKTFETLCTVRTWILTVGYTTAFGAMFAKTWRVHAIFKNVKMKKKIIKDQKLLVIVGGMLLIDLCILICWQAVDPLRRTVERYSMEPDPAGRDISIRPLLEHCENTHMTIWLGIVYAYKGLLMLFGCFLAWETRNVSIPALNDSKYIGMSVYNVGIMCIIGAAVSFLTRDQPNVQFCIVALVIIFCSTITLCLVFVPKLITLRTNPDAATQNRRFQFTQNQKKEDSKTSTSVTSVNQASTSRLEGLQSENHRLRMKITELDKDLEEVTMQLQDTPEKTTYIKQNHYQELNDILSLGNFTESTDGGKAILKNHLDQNPQLQWNTTEPSRTCKDPIEDINSPEHIQRRLSLQLPILHHAYLPSIGGVDASCVSPCVSPTASPRHRHVPPSFRVMVSGL

Reference: paper PMC7378325
